Measurements: patent US11911507B2, “Liposomes comprising polymer-conjugated lipids and related uses” (Yissum Research Development Company of the Hebrew …, priority 2011, dated 2024)

How the values were obtained:
[1] = Size stability of liposomes with different polymer-conjugated lipids on heated incubation, dynamic light scattering; conditions: DMPC liposomes, 55° C., day 1 vs day 17, versus control nanoliposomes
Method: FIG. 3: Size stability of liposomes with different polymer-conjugated lipids (Po-Ls): Liposomes with or without the indicated Po-L were incubated at 55° C. for 17 days, and the change in their size was monitored using dynamic light scattering. […] DMPC=dimyristoyl phosphatidyl-choline; HyPE=HyPE=Hyaluronic acid (HA)-conjugated Phosphatidyl-ethanolamine (PE); Dex (5)-PE=Dextran (MW 5K)-conjugated PE; Dex(40)=Dextran (MW 40K)-conjugated PE; Heta-PE=Hetastarch (hydroxyethylstarch)-conjugated PE; Hem-PE=Hemaccel (Polygeline)-conjugated PE.
The size of the mixed nano-liposomes was determined by dynamic light scattering.

[2] = Retention of liposome-encapsulated inulin fluorescein in rat circulation after tail vein injection; assay type: in vivo; conditions: rats, blood samples 5 minutes and 28 hours, versus control nanoliposomes (FIG. 6)
Method: FIG. 6: Effect of Pol-PLI on stability of liposomes in rat blood (in vivo): InFl-containing Liposomes were injected to the tail vein of rats, and the retention of drug in the circulation was monitored for 28 hour, by determination of the drug level in blood samples taken 5 minutes and 28 hours after injection, and expressed as percent of the initial, injected InFl amount.

Haemaccel-Glutaryl-phosphatidyl-ethanolamine [Hem-PE]
nanoliposome size stability (FIG. 3) [1]: more stable nanoliposome size than control nanoliposomes
release of encapsulated drug from nanoliposomes, in vivo [2]: markedly slowed down the drug release
